Measured values taken from publication PMC5603524, “An alternate mode of oligomerization for E. coli SecA” (Scientific Reports, 2017).
Values joined by “and” are separate entries in the source; they are usually repeats but may differ in a detail not shown here. Equal entries are not always repeated.

B1: SecA-N68 with a wild-type N-terminus (domain or fragment, E. coli, UniProt P10408 1-610, looked up)
chain: MLIKLLTKVFGSRNDRTLRRMRKVVNIINAMEPEMEKLSDEELKGKTAEFRARLEKGEVLENLIPEAFAVVREASKRVFGMRHFDVQLLGGMVLNERCIAEMRTGEGKTLTATLPAYLNALTGKGVHVVTVNDYLAQRDAENNRPLFEFLGLTVGINLPGMPAPAKREAYAADITYGTNNEYGFDYLRDNMAFSPEERVQRKLHYALVDEVDSILIDEARTPLIISGPAEDSSEMYKRVNKIIPHLIRQEKEDSETFQGEGHFSVDEKSRQVNLTERGLVLIEELLVKEGIMDEGESLYSPANIMLMHHVTAALRAHALFTRDVDYIVKDGEVIIVDEHTGRTMQGRRWSDGLHQAVEAKEGVQIQNENQTLASITFQNYFRLYEKLAGMTGTADTEAFEFSSIYKLDTVVVPTNRPMIRKDLPDLVYMTEAEKIQAIIEDIKERTAKGQPVLVGTISIEKSELVSNELTKAGIKHNVLNAKFHANEAAIVAQAGYPAAVTIATNMAGRGTDIVLGGSWQAEVAALENPTAEQIEKIKADWQVRHDAVLEAGGLHIIGTERHESRRIDNQLRGRSGRQGDAGSSRFYLSMEDALMRIFASDRVSGMMRKL
notes: NBD1, PPXD and NBD2 with the unstructured N- and C-termini
B2: SecA-N95ΔN (domain or fragment, E. coli, UniProt P10408 15-835, looked up)
chain: DRTLRRMRKVVNIINAMEPEMEKLSDEELKGKTAEFRARLEKGEVLENLIPEAFAVVREASKRVFGMRHFDVQLLGGMVLNERCIAEMRTGEGKTLTATLPAYLNALTGKGVHVVTVNDYLAQRDAENNRPLFEFLGLTVGINLPGMPAPAKREAYAADITYGTNNEYGFDYLRDNMAFSPEERVQRKLHYALVDEVDSILIDEARTPLIISGPAEDSSEMYKRVNKIIPHLIRQEKEDSETFQGEGHFSVDEKSRQVNLTERGLVLIEELLVKEGIMDEGESLYSPANIMLMHHVTAALRAHALFTRDVDYIVKDGEVIIVDEHTGRTMQGRRWSDGLHQAVEAKEGVQIQNENQTLASITFQNYFRLYEKLAGMTGTADTEAFEFSSIYKLDTVVVPTNRPMIRKDLPDLVYMTEAEKIQAIIEDIKERTAKGQPVLVGTISIEKSELVSNELTKAGIKHNVLNAKFHANEAAIVAQAGYPAAVTIATNMAGRGTDIVLGGSWQAEVAALENPTAEQIEKIKADWQVRHDAVLEAGGLHIIGTERHESRRIDNQLRGRSGRQGDAGSSRFYLSMEDALMRIFASDRVSGMMRKLGMKPGEAIEHPWVTKAIANAQRKVESRNFDIRKQLLEYDDVANDQRRAIYSQRNELLDVSDVSETINSIREDVFKATIDAYIPPQSLEEMWDIPGLQERLKNDFDLDLPIAEWLDKEPELHEETLRERILAQSIEVYQRKEEVVGAEMMRHFEKGVMLQTLDSLWKEHLAAMDYLRQGIHLRGYAQKDPKQEYKRESFSMFAAMLESLKYEVISTLSKVQVRMPE
notes: SecA, E. coli, first 14 N-terminal residues removed, truncated at residue 835; also called SecA-N95∆N; SecA-N95ΔN14
B3: SecA-N95 (domain or fragment, E. coli, UniProt P10408 1-835, looked up)
chain: MLIKLLTKVFGSRNDRTLRRMRKVVNIINAMEPEMEKLSDEELKGKTAEFRARLEKGEVLENLIPEAFAVVREASKRVFGMRHFDVQLLGGMVLNERCIAEMRTGEGKTLTATLPAYLNALTGKGVHVVTVNDYLAQRDAENNRPLFEFLGLTVGINLPGMPAPAKREAYAADITYGTNNEYGFDYLRDNMAFSPEERVQRKLHYALVDEVDSILIDEARTPLIISGPAEDSSEMYKRVNKIIPHLIRQEKEDSETFQGEGHFSVDEKSRQVNLTERGLVLIEELLVKEGIMDEGESLYSPANIMLMHHVTAALRAHALFTRDVDYIVKDGEVIIVDEHTGRTMQGRRWSDGLHQAVEAKEGVQIQNENQTLASITFQNYFRLYEKLAGMTGTADTEAFEFSSIYKLDTVVVPTNRPMIRKDLPDLVYMTEAEKIQAIIEDIKERTAKGQPVLVGTISIEKSELVSNELTKAGIKHNVLNAKFHANEAAIVAQAGYPAAVTIATNMAGRGTDIVLGGSWQAEVAALENPTAEQIEKIKADWQVRHDAVLEAGGLHIIGTERHESRRIDNQLRGRSGRQGDAGSSRFYLSMEDALMRIFASDRVSGMMRKLGMKPGEAIEHPWVTKAIANAQRKVESRNFDIRKQLLEYDDVANDQRRAIYSQRNELLDVSDVSETINSIREDVFKATIDAYIPPQSLEEMWDIPGLQERLKNDFDLDLPIAEWLDKEPELHEETLRERILAQSIEVYQRKEEVVGAEMMRHFEKGVMLQTLDSLWKEHLAAMDYLRQGIHLRGYAQKDPKQEYKRESFSMFAAMLESLKYEVISTLSKVQVRMPE
notes: SecA, E. coli, truncated at residue 835 (stop codon after residue 835); source: E. coli BL21(DE3), purified (ammonium sulfate, PhenylSepharose, Cibacron Blue Sepharose, MonoQ)
B4: H6-SecA-N68 (domain or fragment, E. coli, UniProt P10408 6-610, looked up)
chain: LTKVFGSRNDRTLRRMRKVVNIINAMEPEMEKLSDEELKGKTAEFRARLEKGEVLENLIPEAFAVVREASKRVFGMRHFDVQLLGGMVLNERCIAEMRTGEGKTLTATLPAYLNALTGKGVHVVTVNDYLAQRDAENNRPLFEFLGLTVGINLPGMPAPAKREAYAADITYGTNNEYGFDYLRDNMAFSPEERVQRKLHYALVDEVDSILIDEARTPLIISGPAEDSSEMYKRVNKIIPHLIRQEKEDSETFQGEGHFSVDEKSRQVNLTERGLVLIEELLVKEGIMDEGESLYSPANIMLMHHVTAALRAHALFTRDVDYIVKDGEVIIVDEHTGRTMQGRRWSDGLHQAVEAKEGVQIQNENQTLASITFQNYFRLYEKLAGMTGTADTEAFEFSSIYKLDTVVVPTNRPMIRKDLPDLVYMTEAEKIQAIIEDIKERTAKGQPVLVGTISIEKSELVSNELTKAGIKHNVLNAKFHANEAAIVAQAGYPAAVTIATNMAGRGTDIVLGGSWQAEVAALENPTAEQIEKIKADWQVRHDAVLEAGGLHIIGTERHESRRIDNQLRGRSGRQGDAGSSRFYLSMEDALMRIFASDRVSGMMRKL
notes: SecA, E. coli, residues 6 to 610; lacks the C-terminal helical domains; The tag MHHHHHH stands in place of the first residues of SecA and was not removed; also called His6-SecA-N68; N-terminal histidine-tagged version of SecA-N68; not shown: His6 (MHHHHHH), N-terminal, kept

Tests used:
SecA-N68∆C (E. coli) = SecA-N68∆C (E. coli) (UniProt P10408); assay: AUC; sedimentation velocity, 20 °C, 50 mM Tris-HCl pH 7.5, 100 mM KCl, 2 mM EDTA, 5 mM MgCl2, 5 mM TCEP-HCl; SedFit analysis at a range of concentrations
SecA-N68∆N (E. coli) = SecA-N68∆N (E. coli) (UniProt P10408); assay: as above
[1] = biological target: the molecule itself; assay: as above
[2] = biological target: the molecule itself; assay: AUC; sedimentation equilibrium, 20 °C, 50 mM Tris-HCl pH 7.5, 100 mM KCl, 2 mM EDTA, 5 mM MgCl2; global fit of nine curves at three rotor speeds; dimer to monomers
[3] = biological target: the molecule itself; assay: SEC; analytical gel filtration, Superdex 200 HR 10/30, 50 mM Tris-HCl pH 7.5, 100 mM KCl, 1 mM EDTA, 5 mM MgCl2, 5 mM β-mercaptoethanol, room temperature; H6-SecA-N68 applied at up to 4 mg/mL, SecA-N68∆NC at 10 mg/mL

| Molecule | stoichiometry N [1] | Kd [2] [µM] | further results |
| --- | --- | --- | --- |
| SecA-N68∆C (from UniProt P10408 1-590) (domain or fragment) | – | – | stoichiometry N (SecA-N68∆C (E. coli)): 2 |
| SecA-N68∆N (from UniProt P10408 15-610) (domain or fragment) | – | – | relative amount of the dimer at 4 mg/mL (SecA-N68∆N (E. coli)): 50%; stoichiometry N (SecA-N68∆N (E. coli)): 2 |
| B1 | 2 and 4 | – | – |
| B2 | 2 | 24.5 | – |
| B3 | 2 | < 1 | – |
| B4 | – | – | binding result [3]: binds |
